The text below walks through data of patent publication US20060034835A1 (Genentech, published 2006).

For one experiment, the target named is human CD20 (human) (UniProt P11836). Description: cell-based or functional assay.
The target in another experiment is T1, human CD20 (human, UniProt P11836 1-297).
T1 construct: whole, on cells; also called CD20 antigen; Bp35
T1 sequence (looked up): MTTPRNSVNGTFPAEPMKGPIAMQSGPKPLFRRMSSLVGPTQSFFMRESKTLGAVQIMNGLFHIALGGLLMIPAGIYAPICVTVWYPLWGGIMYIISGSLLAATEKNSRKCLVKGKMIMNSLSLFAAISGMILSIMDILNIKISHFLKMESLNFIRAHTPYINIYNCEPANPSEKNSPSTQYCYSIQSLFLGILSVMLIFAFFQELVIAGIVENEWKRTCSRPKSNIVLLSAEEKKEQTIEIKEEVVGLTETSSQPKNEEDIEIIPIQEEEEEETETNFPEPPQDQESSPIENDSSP
Put plainly: cell-based ELISA on WIL2-S cells.

In the experiment with human CD20 (human), Rituxan (rituximab) (antibody) returned an ADCC: EC50(variant)/EC50(2H7.v16) of 5.3, an ADCC: EC50(variant)/EC50(Rituxan) of 1, a CDC: EC50(variant)/EC50(Rituxan) of 1 and an apoptosis of Ramos cells: fraction of Annexin V stained cells at 10 nM crosslinked antibody of 16.5%. In the experiment with human CD20 (human), the apoptosis of Ramos cells: fraction of doubly labeled cells at 10 nM crosslinked antibody worked out at 38% and the apoptosis of Ramos cells: live cells counted per 10 s at 10 nM crosslinked antibody (cells per 10 s) came out at 3100.

B1: 2H7 version 166 (antibody, human IgG1, kappa, V domains shown)
VH: EVQLVESGGGLVQPGGSLRLSCAASGYTFTSYNMHWVRQAPGKGLEWVGAIYPGNGDTSYNQKFKGRFTISVDKSKNTLYLQMNSLRAEDTAVYYCARVVYYGGDWYFDVWGQGTLVTVSS
VL: DIQMTQSPSSLSASVGDRVTITCRASSSVSYMHWYQQKPGKAPKPLIYAPSNLASGVPSRFSGSGSGTDFTLTISSLQPEDFATYYCQQWSFNPPTFGQGTKVEIKR
notes: IgG1; Y100b is deleted (written as a substitution with an empty new residue)
In the case of B1, in the experiment with human CD20, the Relative binding was 0.99 ratio to 2H7.v16.
